Molecular target: the molecule itself
Experiment: SEC; purified recombinant His-tagged ASK13; Superose 6 column by the legend; fractions confirmed by dot blot with an anti-His antibody

B1: Recombinant His-tagged ASK13 (natural protein, Arabidopsis thaliana, UniProt Q9M1X5 1-154, looked up)
chain: MSKMVMLLSSDGESFQVEEAVAVQSQTIAHMIEDDCVANGVPIANVTGVILSKVIEYCKKHVVSDSPTEESKDELKKWDAEFMKALEQSSTLFDVMLAANYLNIKDLLDLGCQTVADMITGKKPDEIRALLGIENDFTPEEEEEIRKENQWAFE
notes: ASK13 (SKP1-like protein13), Arabidopsis thaliana, At3g60010; sub-cloned into pET23d; Found as monomer and dimer; also called recombinant ASK13; his-tagged ASK13 protein; not shown: His tag, C-terminal, kept
In the case of B1, the “stoichiometry N” value is reported as 2.

— paper PMC6054272, “Arabidopsis SKP1-like protein13 (ASK13) positively regulates seed germination and seedling growth under abiotic stress” (Journal of Experimental Botany, 2018)
